B1: VEGFR1 (mouse, endogenous in MAEC, MVEC, trigeminal ganglion neurons and mouse tissues) (receptor, UniProt P35969 23-1333, looked up)
chain: YGSGSKLKVPELSLKGTQHVMQAGQTLFLKCRGEAAHSWSLPTTVSQEDKRLSITPPSACGRDNRQFCSTLTLDTAQANHTGLYTCRYLPTSTSKKKKAESSIYIFVSDAGSPFIEMHTDIPKLVHMTEGRQLIIPCRVTSPNVTVTLKKFPFDTLTPDGQRITWDSRRGFIIANATYKEIGLLNCEATVNGHLYQTNYLTHRQTNTILDVQIRPPSPVRLLHGQTLVLNCTATTELNTRVQMSWNYPGKATKRASIRQRIDRSHSHNNVFHSVLKINNVESRDKGLYTCRVKSGSSFQSFNTSVHVYEKGFISVKHRKQPVQETTAGRRSYRLSMKVKAFPSPEIVWLKDGSPATLKSARYLVHGYSLIIKDVTTEDAGDYTILLGIKQSRLFKNLTATLIVNVKPQIYEKSVSSLPSPPLYPLGSRQVLTCTVYGIPRPTITWLWHPCHHNHSKERYDFCTENEESFILDPSSNLGNRIESISQRMTVIEGTNKTVSTLVVADSQTPGIYSCRAFNKIGTVERNIKFYVTDVPNGFHVSLEKMPAEGEDLKLSCVVNKFLYRDITWILLRTVNNRTMHHSISKQKMATTQDYSITLNLVIKNVSLEDSGTYACRARNIYTGEDILRKTEVLVRDSEAPHLLQNLSDYEVSISGSTTLDCQARGVPAPQITWFKNNHKIQQEPGIILGPGNSTLFIERVTEEDEGVYRCRATNQKGAVESAAYLTVQGTSDKSNLELITLTCTCVAATLFWLLLTLFIRKLKRSSSEVKTDYLSIIMDPDEVPLDEQCERLPYDASKWEFARERLKLGKSLGRGAFGKVVQASAFGIKKSPTCRTVAVKMLKEGATASEYKALMTELKILTHIGHHLNVVNLLGACTKQGGPLMVIVEYCKYGNLSNYLKSKRDLFCLNKDAALHMELKKESLEPGLEQGQKPRLDSVSSSSVTSSSFPEDRSVSDVEGDEDYSEISKQPLTMEDLISYSFQVARGMEFLSSRKCIHRDLAARNILLSENNVVKICDFGLARDIYKNPDYVRRGDTRLPLKWMAPESIFDKVYSTKSDVWSYGVLLWEIFSLGGSPYPGVQMDEDFCSRLKEGMRMRTPEYATPEIYQIMLDCWHKDPKERPRFAELVEKLGDLLQANVQQDGKDYIPLNAILTRNSGFTYSTPTFSEDLFKDGFADPHFHSGSSDDVRYVNAFKFMSLERIKTFEELSPNSTSMFEDYQLDTSTLLGSPLLKRFTWTETKPKASMKIDLRIASKSKEAGLSDLPRPSFCFSSCGHIRPVQDDESELGKESCCSPPPDYNSVVLYSSPPA
notes: VEGF receptor 1 (VEGFR-1, flt-1), endogenous in mouse aortic and venous endothelial cell lines, thy1-YFP mouse trigeminal ganglion neurons and mouse tissues; Endogenous protein; also called flt-1; Flt-1; source: endogenous, MAEC and MVEC lysates; endogenous, mouse tissue lysates (thoracic aorta, portal vein, dorsal root ganglia, trigeminal ganglia, cornea); endogenous, fixed MAEC, MVEC and …

Experiments:
[1] = target: B1; assay: proximity ligation; Duolink PLA on fixed MVEC; anti-VEGFR1 and anti-VEGFR2 with PLUS and MINUS probes (the same antibody with both probes for homodimers); signal only within 40 nm; details: partners not purified
[2] = target: the molecule itself; assay: as above
[3] = target: B1; assay: proximity ligation; Duolink PLA on fixed mouse trigeminal ganglion (TG) neuronal cells; anti-VEGFR1 and anti-VEGFR2 with PLUS and MINUS probes (the same antibody with both probes for homodimers); signal only within 40 nm; details: partners not purified
[4] = target: the molecule itself; assay: as above

| Binder | mean PLA fluorescence intensity per cell [1] | mean PLA fluorescence intensity per cell [2] | mean PLA fluorescence intensity per cell [3] | mean PLA fluorescence intensity per cell [4] |
| --- | --- | --- | --- | --- |
| VEGFR2 (mouse, endogenous in MAEC, MVEC, trigeminal ganglion neurons and mouse tissues) (receptor, UniProt P35918 20-1345, looked up, Endogenous protein; also called KDR; flk-1; source: endogenous, MAEC and MVEC lysates; endogenous, mouse tissue lysates (thoracic aorta, portal vein, dorsal root ganglia, trigeminal ganglia, cornea); endogenous, fixed MAEC, MVEC and trigeminal ganglion neuronal cells) ASVGLPGDFLHPPKLSTQKDILTILANTTLQITCRGQRDLDWLWPNAQRDSEERVLVTECGGGDSIFCKTLTIPRVVGNDTGAYKCSYRDVDIASTVYVYVRDYRSPFIASVSDQHGIVYITENKNKTVVIPCRGSISNLNVSLCARYPEKRFVPDGNRISWDSEIGFTLPSYMISYAGMVFCEAKINDETYQSIMYIVVVVGYRIYDVILSPPHEIELSAGEKLVLNCTARTELNVGLDFTWHSPPSKSHHKKIVNRDVKPFPGTVAKMFLSTLTIESVTKSDQGEYTCVASSGRMIKRNRTFVRVHTKPFIAFGSGMKSLVEATVGSQVRIPVKYLSYPAPDIKWYRNGRPIESNYTMIVGDELTIMEVTERDAGNYTVILTNPISMEKQSHMVSLVVNVPPQIGEKALISPMDSYQYGTMQTLTCTVYANPPLHHIQWYWQLEEACSYRPGQTSPYACKEWRHVEDFQGGNKIEVTKNQYALIEGKNKTVSTLVIQAANVSALYKCEAINKAGRGERVISFHVIRGPEITVQPAAQPTEQESVSLLCTADRNTFENLTWYKLGSQATSVHMGESLTPVCKNLDALWKLNGTMFSNSTNDILIVAFQNASLQDQGDYVCSAQDKKTKKRHCLVKQLIILERMAPMITGNLENQTTTIGETIEVTCPASGNPTPHITWFKDNETLVEDSGIVLRDGNRNLTIRRVRKEDGGLYTCQACNVLGCARAETLFIIEGAQEKTNLEVIILVGTAVIAMFFWLLLVIVLRTVKRANEGELKTGYLSIVMDPDELPLDERCERLPYDASKWEFPRDRLKLGKPLGRGAFGQVIEADAFGIDKTATCKTVAVKMLKEGATHSEHRALMSELKILIHIGHHLNVVNLLGACTKPGGPLMVIVEFCKFGNLSTYLRGKRNEFVPYKSKGARFRQGKDYVGELSVDLKRRLDSITSSQSSASSGFVEEKSLSDVEEEEASEELYKDFLTLEHLICYSFQVAKGMEFLASRKCIHRDLAARNILLSEKNVVKICDFGLARDIYKDPDYVRKGDARLPLKWMAPETIFDRVYTIQSDVWSFGVLLWEIFSLGASPYPGVKIDEEFCRRLKEGTRMRAPDYTTPEMYQTMLDCWHEDPNQRPSFSELVEHLGNLLQANAQQDGKDYIVLPMSETLSMEEDSGLSLPTSPVSCMEEEEVCDPKFHYDNTAGISHYLQNSKRKSRPVSVKTFEDIPLEEPEVKVIPDDSQTDSGMVLASEELKTLEDRNKLSPSFGGMMPSKSRESVASEGSNQTSGYQSGYHSDDTDTTVYSSDEAGLLKMVDAAVHADSGTTLRSPPV | 99600 | 2.58e+06 | 268000 | 706000 |
| B1 |  | 43300 |  | 2200 |
